# Test results taken from a protein production outcome set (Wang et al. 2014).
# Assay: label from the status in PepcDB records
# 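Further: failed if final PepcDB status was selected cloned or expressed and not failed if soluble or beyond.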
row,Sequence,protein production
1,LRQSQQMLQLVMDTIPHSVFWKDRNSVFLGCNRNFAIMVGYEHPENLIGKTDYDFLPDPRNADLYRQCDARIIETNNPEYHIIEPMLAPDGQQIWLETNKVPLHDPEGNVVGVLGTFEDITERKQVQEA,failed
2,LSANYAENLQAQQRSAQRLEHQAWLRTGQTQLAQQVLGQLTLPMLGENILRFFASYLGSVVGAVYVRDEHGRLVRVACYGLSTEEQAREQIESDHHGLLAQAVREGRLLRLEELPEDFYRLSSGLGSGLPRSALLMPATEDGQINGVIELGFLRPLQERDEELLERVGGNLGMSIESA,failed
3,LSDKLMERLKERAEGIFVSGPPGSGKSTFVAALAEFYRSQGKIVKTMESPRDLQVSKEITQYAPLEGDMEKTCDILLLVRPDYTIYDEVRKTRDFEIFADMRMAGVGMVGVVHASKPIDAIQRLIGRVELGVIPQVVDTVIFIKDGKIQKVYEIDFTVKVPYG,failed
4,LSEVEFVEFQKENFSLLIDARSPREFLHSHLIGALNFYALNDEEYQEIGTIYKKNQALAKAMGASYICQNTTKHILEITQNFRIGEKVGIYCSRGGLRSKSIAVILSELGFRVVRLKGGFKAYRTFVTHYFEN,failed
5,LSIPEDYQARLQPNRVEGSYPLVRMEFTGATVDAPLMSQISRKYNIDVSILSSDLDYAGGVKFGMMVAELFGNEQDDSAAIEYLREHNVKVEVLGYVL,not failed
6,LSNLETAKAMIAAYNAQDVDTYVSYMTDDACEANYRGDVVREGKEGTRSGLAAAFARWPQNHAEIKDAQQVGTYVLMREHVTRGPATDGSPLVEPFDVVAVYSFEGDKCSRVEFIR,not failed
7,LSPPRGLVAVRTPRGVLLHWDPPELVPKRLDGYVLEGRQGSQGWEVLDPAVAGTETELLVPGLIKDVLYEFRLVAFAGSFVSDPSNTANVSTSGL,not failed
8,LTFETLAREWFAYNSPRWAESTTYKAKLYMENDLIPGIGARPVKALTRPDLVDLVRKVEARGTLNAAGKIRQWLHQIFRYGLAKGVVESNPATDLDVVAAP,failed
9,MAAAAATAVGPGAGSAGVAGPGGAGPCATVSVFPGARLLTIGDANGEIQRHAEQQALRLEVRAGPDAAGIALYSHEDVCVFKCSVSRETECSRVGRQSFIITLGCNSVLIQFATPHDFCSFYNILKTCRGHTLERSVFSERTEESSAVQYFQFYGYLSQQQNMMQDYVRTGTYQRAILQNHTDFKDKIVLDVGCGSGILSFFAAQAGARKIYAVEASTMAQHAEVLVKSNNLTDRIVVIPGKVEEVSLPEQVDIIISEPMGYMLFNERMLESYLHAKKYLKPSGNMFPTIGDVHLAPFTDEQLYMEQFTKANFWYQPSFHGVDLSALRGAAVDEYFRQPVVDTFDIRILMAKSVKYTVNFLEAKEGDLHRIEIPFKFHMLHSGLVHGLAFWFDVAFIGSIMTVWLSTAPTEPLTHWYQVRCLFQSPLFAKAGDTLSGTCLLIANKRQSYDISIVAQVDQTGSKSSNLLDLKNPFFRYTGTTPSPPPGSHYTSPSENMWNTGSTYNLSSGVAVAGMPTAYDLSSVIAGGSSVGHNNLIPLANTGIVNHTHSRMGSIMSTGIVQGNRVAGPWAGDLPPGLRTRSSYQWGPGRLRGHAGSSVPMTCPTGSSGAQGGGGSSSAHYAVNNQFTMGGPAISMASPMSIPTNTMHYGS,failed
10,MAAAPWYIRQRDTDLLGKFKFIQNQEDGRLREATNGTVNSRWSLGVSIEPRNDARNRYVNIMPYERNRVHLKTLSGNDYINASYVKVNVPGQSIEPGYYIATQGPTRKTWDQFWQMCYHNCPLDNIVIVMVTPLVEYNREKCYQYWPRGGVDDTVRIASKWESPGGANDMTQFPSDLKIEFVNVHKVKDYYTVTDIKLTPTDPLVGPVKTVHHFYFDLWKDMNKPEEVVPIMELCAHSHSLNSRGNPIIVHCSAGVGRTGTFIALDHLMHDTLDFKNITERSRHSDRATEEYTRDLIEQIVLQLRSQRMKMVQTKDQFLFIYHAAKYLNSLSVNQ,failed
11,MAAAVSTVGAINRAPLSLNGSGSGAVSAPASTFLGKKVVTVSRFAQSNKKSNGSFKVLAVKEDKQTDGDRWRGLAYDTSDDQQDITRGKGMVDSVFQAPMGTGTHHAVLSSYEYVSQGLRQYNLDNMMDGFYIAPAFMDKLVVHITKNFLTLPNIKVPLILGIWGGKGQGKSFQCELVMAKMGINPIMMSAGELESGNAGEPAKLIRQRYREAADLIKKGKMCCLFINDLDAGAGRMGGTTQYTVNNQMVNATLMNIADNPTNVQLPGMYNKEENARVPIICTGNDFSTLYAPLIRDGRMEKFYWAPTREDRIGVCKGIFRTDKIKDEDIVTLVDQFPGQSIDFFGALRARVYDDEVRKFVESLGVEKIGKRLVNSREGPPVFEQPEMTYEKLMEYGNMLVMEQENVKRVQLAETYLSQAALGDANADAIGRGTFYGKGAQQVNLPVPEGCTDPVAENFDPTARSDDGTCVYNF,failed
12,MAADYTHFIHRQHAPPEVCLSAFSGHNDALDFPDSEGSPVSQSLIAALQNPALFPHPVEGFQVIETHISWVLLTGPFAYKVKKPVNFGFLDFTSLDAREHFCGEELRLNQRLTEDLYLEVLPITGSAEAPVLGGDGPAIEYVLKMRQFPQSQLLSTLQANSELTTAHIDEMARQIAHFHLNAPKVPAEHEAGTPESVMAPVRQNFEQIRPFLSDKADLQQLEALEAWAETSFERLKPLLAQRKSEGFIRECHGDIHLGNATLIDGKVVIFDCIEFNEPFRFTDVYADTGFLAMDLEDRGLKSLARRFISQYLELTGDYQGLELLNFYKAYRALVRAKVSLFSMPAEATPVQRATTLRQYRNYANLAESYSTIPSRFLAITSGISAVGKSRVAMRLVEALGAVRLRSDVERKRLFGEQQVPNDPHAGIYSSEASSATYARLHEIAETILRAGFPVVIDATYLKRAQRDAAAKVAEATGTPCLIIDCNAPEAVVASWLAQRQADQNDPSDATLEVIANQQATREALTDEELLRSKRIETNESGSLDALVANIRQRLPGLLEHHHHHH,failed
13,MAAFPNLNSGSGLKKLDEHLLTRSYITGYQASKDDITVFTALSKPPTSEFVNVSRWFNHIDALLRISGVSAEGSGVIVEGSSPITEEAVATPPAADSKDTAAEEEDDDDVDLFGEETEEEKKAAEERAASVKASTKKKESGKSSVLMDIKPWDDETDMKKLEEAVRSIQMEGLFWGASKLVPVGYGIKKLHIMCTIVDDLVSIDTMIEEQLTVEPINEYVQSCDIVAFNKI,failed
14,MAAGALPAREPGLLKPAVLWLLLLAPLFFSTYGFATWVTAQRDDVGSMVFDWERHMPFWAWTIVPYWSIDLLYGFSLLLPRSRDELKRHALRLLTAQVIAVSCFLLWPLSFTFSRPELDGVFGWLFAVLAGFDKPFNQAPSLHIALLVVLWVCYARHTQGFWRWLVHGWFALIGVSVLSTYQHHFIDVPTGALAGWLCVWLWPLDRPSPLFSARAAQDPKRRQLALRYGLGATLFAGAAFAWGGAALWLIWPAVALLLVALNYALLGAEGFQKRQDGSLSPAARWLLAPYLAAAWINSRLWTRKHPQPDPVVDNVWLGRLPTPAELKDSPFDAVLDLCAELSLDSRGLRAYQSLPVLDLCAPSAEQCLAAAHAIERLRQQGPLLVCCALGYSRSATAIAAWLLHSGRAATVDAAIVQIQRARPQIVLHPAHRQALQALSSAGRTAHVH,failed
15,MAAGPEPPEWEPRWRKALRGKENKGSVEIMRKDLNDARDLHGQAESAAAVWKGHVMDRRKKALTDYKKLRAFFVEEEEHFLQEAEKDEGASEDDELADPADRFRSLLQAVSELEKKHRNLGLSMLLQ,not failed
16,MAAKSLVDIAYESDSSSDSSDEGDVPCLPKDEVNERKLQNLQRKAFYNLLQTFAFENSTMSNKRTEIIGKLMNEWGIANETHISFADQIQKKLLTLKQTKHSGVKETQIPATPLTNTATPSTFFVPKPVKSWGSVNPESLIGKWVSIRLPDKAKFTEYIIKAYDAEKEMHSLLTETSNPMEVDCIDPFRWIDIRDISPNDIMWEGGQKPNFAAPNQSAAATGQ,failed
17,MAALLGIVSPVTFTGKHPVNSRSRRRTVVKCSNERRILFNRIAPVYDNLNDLLSLGQHRIWKNMAVSWSGAKKGDYVLDLCCGSGDLAFLLSEKVGSTGKVMGLDFSSEQLAVAATRQSLKARSCYKCIEWIEGDAIDLPFDDCEFDAVTMGYGLRNVVDRLRAMKEMYRVLKPGSRVSILDFNKSNQSVTTFMQGWMIDNVVVPVATVYDLAKEYEYLKYSINGYLTGEELETLALEAGFSSACHYEISGGFMGNLVAMR,failed
